Assay results published in US10130682B2, “Methods of using pigment epithelium derived factor (PEDF) for the treatment and prevention of agent-induced gonadal or uterine toxicity” (Ramot at Tel-Aviv University Ltd., priority 2014, dated 2018).

What was measured:
CD34 = CD34 immunohistochemical staining of uterine blood vessels, prolonged tamoxifen model; type: in vivo, mouse; conditions: prolonged treatment
Method: (§1) DXR damage was evaluated in 7 weeks ICR female mice following treatment for superovulation with pregnant mares' serum (PMSG, 7 IU) SC on day 0 and human chorionic gonadotropin (hCG, […]) SC on day 2. On day 1, mice were administered with DXR (6 mg/kg) or saline (control) IV. Mice ovaries were retrieved on day 3 (FIG. 1A). The ability of rPEDF to overcome the destructive effect of DXR 7 weeks ICR female mice were treated with DXR (6 mg/kg) or saline (control) IV on day 0, rPEDF (2 mg/kg) or TRIS (control) was administered SC on day 1, followed by induction for superovulation with PMSG (7 IU) SC on day 4 and hCG (7 IU) SC on day 6. Mice ovaries were retrieved on day 7 (FIG. 2A). […] Mice uteri were excised at day 7. […] Mice treated with tamoxifen alone served as control. […] Mice treated with tamoxifen alone served as control.
Paraffin-embedded sections were deparaffinized, microwave heated while being subjected to an antigen retrieval agent (H-3300, Vector Laboratories Inc., Burlingame, Calif., USA), cooled on ice to room temperature, rinsed in PBS, incubated for 1 hour with PBSTg (0.2% Tween and gelatin in PBS), washed with PBS, blocked for 10 minutes in blocking solution (Cell Marque Corporation, Calif., USA) and incubated overnight with anti PNPLA2 or anti-CD34 primary antibodies. […]

JNK = test: Uterine JNK phosphorylation (western blot), sub-acute tamoxifen model; type: in vivo, mouse; conditions: 7 days
Method: as §1
(§2) Samples were homogenized in cold lysis buffer (20 mM HEPES, 150 mM NaCl and 0.2% Igepal; sigma) and centrifuged at 12,000 rpm, for 15 min, at 4° C.). Proteins were separated by sodium dodecyl sulfate polyacrylamide gel electrophoresis (SDS-PAGE; 10%; Bio-Rad, Israel). […] Approximate molecular masses were determined by comparison with the migration of pre-stained protein standards (Bio-Rad). […] Intensity of the protein bands was quantified by Image J […] (NIH).

[1] = system: progesterone receptor (PR); test: Uterine PR mRNA (qPCR), prolonged tamoxifen model; type: in vivo, mouse; conditions: tamoxifen models taken together
Method: DXR damage was evaluated in 7 weeks ICR female mice following treatment for superovulation with pregnant mares' serum (PMSG, 7 IU) SC on day 0 and human chorionic gonadotropin (hCG, […]) SC on day 2. On day 1, mice were administered with DXR (6 mg/kg) or saline (control) IV. Mice ovaries were retrieved on day 3 (FIG. 1A). The ability of rPEDF to overcome the destructive effect of DXR 7 weeks ICR female mice were treated with DXR (6 mg/kg) or saline (control) IV on day 0, rPEDF (2 mg/kg) or TRIS (control) was administered SC on day 1, followed by induction for superovulation with PMSG (7 IU) SC on day 4 and hCG (7 IU) SC on day 6. Mice ovaries were retrieved on day 7 (FIG. 2A). […] Mice uteri were excised at day 7. […] Mice treated with tamoxifen alone served as control. […]
Total RNA was isolated from various tissues (ovaries, eyes) or from granulosa cells, using Trizol reagent (Invitrogen) according to manufacturer's instructions, and quantified with the Nano-Drop spectrophotometer (ND-1000; Thermo Scientific). […] DNA was amplified using 1 μl RT reaction and 50 pmol gene-specific primers in ReadyMix™ mixture (Sigma). […] Changes in the level of expression of mRNA were detected by SYBR green reagent (SYBR® Green PCR Master Mix, ABI, Carlsbad, Calif., USA) along with 15 ng cDNA and specific primers, on a StepOnePlus Real-Time PCR System (Applied Biosystems, Foster City, Calif., USA).

ERβ = test: Uterine ERβ mRNA (qPCR), prolonged tamoxifen model; type: in vivo, mouse; conditions: tamoxifen models taken together
LH-15 cells = test: MTT cell viability assay in LH-15 granulosa cells under H2O2; type: cell-based, rat; conditions: rPEDF 1 nM or 5 nM with 100 or 200 μM H2O2, 24 hours
Method: (§3) Rat granulosa cell line LH-15 [Suh et al. J Cell Biol (1992) 119: 439-450] was cultured in hormone-free DMEM-F12 medium, supplemented with penicillin (100 IU/ml; Biological Industries), streptomycin ([…]; Biological Industries) and 10% charcoal-stripped fetal bovine serum (CS-FBS; Invitrogen) (culture medium), as described previously (Breckwoldt et al. 1996, Sasson & Amsterdam 2002). Cells were serum-starved for 16 hours (0.1% CS-FBS) prior to and during recombinant PEDF (rPEDF) stimulation or incubated in 2% CS-FBS during H2O2 stimulation.
Equal amount of LH-15 cells were seeded onto 6-well plates to a final volume of 500 μl. Following treatments, each well was incubated for 30 minutes with 10 μl of MTT [3-(4, 5-Dimethylthiazol-2-yl)-2, 5-diphenyltetrazolium bromide; 5 mg/ml] followed by an additional 2-4 hours incubation period at 37° C. The reaction was terminated by addition of 110 μl HCl (0.07 M in isopropanol) and OD 560 nm was measured by the SpectraMax 190 microplate reader ([…], Eugene, Oreg., USA).

BAX = BAX protein level (western blot) in LH-15 cells under H2O2; type: cell-based, rat; conditions: exogenous rPEDF added to H2O2; P<0.05
Method: as §3
(§4) Samples were homogenized in cold lysis buffer (20 mM HEPES, 150 mM NaCl and 0.2% Igepal; sigma) and centrifuged at 12,000 rpm, for 15 min, at 4° C.). Proteins were separated by sodium dodecyl sulfate polyacrylamide gel electrophoresis (SDS-PAGE; 10%; Bio-Rad, Israel). Separated proteins were transferred onto nitrocellulose membranes (Whatman GmbH, Germany) in a mini tank transfer unit (TE 22, Amersham, UK). Approximate molecular masses were determined by comparison with the migration of pre-stained protein standards (Bio-Rad). Blots were blocked for 1 hour in TBST (10 mM Tris-HCl, pH=8.0, 150 mM NaCl, 0.05% Tween 20) containing 5% skim-milk (Alba, N.Y., USA) followed by an over-night incubation at 4° C. with primary antibodies. […] Intensity of the protein bands was quantified by Image J […] (NIH).

SOD-1 = SOD-1 mRNA level (qPCR) in LH-15 cells under H2O2; type: cell-based, rat; conditions: rPEDF 1 nM added to H2O2
Method: as §3
(§5) Total RNA was isolated from various tissues (ovaries, eyes) or from granulosa cells, using Trizol reagent (Invitrogen) according to manufacturer's instructions, and quantified with the Nano-Drop spectrophotometer (ND-1000; Thermo Scientific). First-strand cDNA was produced by RT (Maxima™ Reverse transcriptase, Thermo Scientific) from a total of 1 μg RNA, using oligo-dt primers (Thermo Scientific). DNA was amplified using 1 μl RT reaction and 50 pmol gene-specific primers in ReadyMix™ mixture (Sigma). […] Changes in the level of expression of mRNA were detected by SYBR green reagent (SYBR® Green PCR Master Mix, ABI, Carlsbad, Calif., USA) along with 15 ng cDNA and specific primers, on a StepOnePlus Real-Time PCR System (Applied Biosystems, Foster City, Calif., USA).

OVX ICR mice = test: Uterine weight, prolonged tamoxifen model in ovariectomized mice; type: in vivo, mouse
Method: as §1
(§6) At the end of each experiment, uteri were isolated, excised and weighed.

AKT [2] = test: Uterine AKT phosphorylation (western blot), sub-acute tamoxifen model; type: in vivo, mouse; conditions: 7 days
Method: as §1, §2

ERα [3] = test: Uterine ERα mRNA (qPCR), prolonged tamoxifen model; type: in vivo, mouse; conditions: prolonged tamoxifen model
AKT [4] = test: AKT phosphorylation (western blot) in serum-starved LH-15 cells; type: cell-based, rat; conditions: 1 nM rPEDF, various durations, P<0.05
Method: as §3, §4

[5] = system: ovariectomized (OVX) ICR mice; test: Uterine weight, sub-acute tamoxifen model in ovariectomized mice; type: in vivo, mouse; conditions: rPEDF 10 mg/kg SC with tamoxifen 2.5 μg/mouse daily for 7 days
Method: as §1, §6

GPX-1 = GPX-1 mRNA level (qPCR) in LH-15 cells under H2O2; type: cell-based, rat; conditions: rPEDF 1 nM added to H2O2
Method: as §3, §5

ERα [6] = test: Uterine ERα protein (western blot), prolonged tamoxifen model; type: in vivo, mouse
Method: as §1, §2

ICR female mice = test: Number of ovulated oocytes in DXR-treated mice given rPEDF; type: in vivo, mouse; conditions: rPEDF 2 mg/kg SC the day after DXR 6 mg/kg IV; vs DXR alone
Method: FIG. 2A is an illustration depicting the experimental setting: 7 weeks ICR female mice (n=4/group) were treated with DXR or saline (control), at the day after mice were administrated with rPEDF or TRIS (control). On the fourth day of the experiment mice were induced for superovulation with the standard PMSG/hCG protocol [Ben-Aharon et al. Reproductive Biology and Endocrinology: RB&E (2010) 8: 20]. Mice were sacrificed 16-17 hours after hCG administration.
DXR damage was evaluated in 7 weeks ICR female mice following treatment for superovulation with pregnant mares' serum (PMSG, 7 IU) SC on day 0 and human chorionic gonadotropin (hCG, […]) SC on day 2. On day 1, mice were administered with DXR (6 mg/kg) or saline (control) IV. Mice ovaries were retrieved on day 3 (FIG. 1A). The ability of rPEDF to overcome the destructive effect of DXR 7 weeks ICR female mice were treated with DXR (6 mg/kg) or saline (control) IV on day 0, rPEDF (2 mg/kg) or TRIS (control) was administered SC on day 1, followed by induction for superovulation with PMSG (7 IU) SC on day 4 and hCG (7 IU) SC on day 6. […]
cumulus-enclosed oocytes were isolated from the oviductal ampullae into M2 medium (Sigma), 16-18 hrs after hCG administration. Cumulus cells were removed by a brief exposure to 400 IU/ml hyaluronidase (Sigma) and the number of ovulated oocytes was counted under binocular.

VEGF [7] = test: Uterine VEGF protein (western blot), prolonged tamoxifen model; type: in vivo, mouse; conditions: rPEDF 2 mg/kg SC once every 3 days from day 8 of one-month tamoxifen treatment
Method: as §1, §2

VEGF [8] = test: Uterine VEGF protein (western blot), sub-acute tamoxifen model; type: in vivo, mouse; conditions: rPEDF 10 mg/kg SC with tamoxifen 2.5 μg/mouse daily for 7 days
Method: as §1, §2

ERα [9] = test: Uterine ERα mRNA (qPCR), sub-acute tamoxifen model; type: in vivo, mouse; conditions: sub-acute tamoxifen model

B1: rPEDF: Human recombinant PEDF (NM_002615.4, SEQ ID NO: 1) expressed in E. coli BL21, purified on Ni-NTA His-Bind resin (protein, UniProt P36955 20-418, looked up)
Pigment epithelium-derived …: QNPASPPEEGSPDPDSTGALVEEEDPFFKVPVNKLAAAVSNFGYDLYRVRSSTSPTTNVLLSPLSVATALSALSLGAEQRTESIIHRALYYDLISSPDIHGTYKELLDTVTAPQKNLKSASRIVFEKKLRIKSSFVAPLEKSYGTRPRVLTGNPRLDLQEINNWVQAQMKGKLARSTKEIPDEISILLLGVAHFKGQWVTKFDSRKTSLEDFYLDEERTVRVPMMSDPKAVLRYGLDSDLSCKIAQLPLTGSMSIIFFLPLKVTQNLTLIEESLTSEFIHDIDRELKTVQAVLTVPKLKLSYEGEVTKSLQEMKLQSLFDSPDFSKITGKPIKLTQVEHRAGFEWNEDGAGTTPSPGLQPAHLTFPLDYHLNQPFIFVLRDTDTGALLFIGKILDPRGP
modifications: His tag
CD34 staining in uteri, tamoxifen+rPEDF vs tamoxifen alone (CD34): decrease in CD34 staining | uterine JNK phosphorylation, tamoxifen+rPEDF vs tamoxifen alone (JNK): increase in phosphorylation of JNK | PR expression in uteri, rPEDF with tamoxifen [1]: without modifying the expression | ERβ expression in uteri, rPEDF with tamoxifen (ERβ): without modifying the expression | cells viability (MTT) under H2O2 (LH-15 cells): significantly (P<0.05) decreased H2O2-induced reduction in cells viability | BAX expression under H2O2 (BAX): decreased its expression | SOD-1 mRNA expression under H2O2 (SOD-1): elevated their expression | effectiveness of rPEDF treatment by timing of administration (OVX ICR mice; preliminary analysis, data not shown, prolonged tamoxifen model): more effective when administered following a short period of initiation with tamoxifen | uterine weights, tamoxifen+rPEDF vs tamoxifen alone (OVX ICR mice; rPEDF 2 mg/kg SC once every 3 days from day 8 of one-month tamoxifen treatment): down-regulated in mice treated with tamoxifen+rPEDF, though not statistically significant (p=0.2) | uterine AKT phosphorylation, tamoxifen+rPEDF vs tamoxifen alone (AKT [2]): significant decrease in phosphorylation of AKT | ERα mRNA levels in uteri, rPEDF with tamoxifen (ERα [3]): able to reverse the prolonged tamoxifen-induced reduction in ERα mRNA levels | phosphorylation of AKT (AKT [4]): induced prolonged, time-dependent phosphorylation of AKT starting at 5 minutes | uterine weight, tamoxifen+rPEDF vs tamoxifen alone [5]: significant decrease | GPX-1 mRNA expression under H2O2 (GPX-1): elevated their expression | ERα protein expression in uteri, rPEDF with tamoxifen (ERα [6]): down-regulate the expression of ERα protein | number of ovulated oocytes (ICR female mice): significantly (P<0.05) decreased DXR-induced reduction in number of ovulated oocytes | uterine VEGF protein expression, tamoxifen+rPEDF vs tamoxifen alone (VEGF [7]): significantly decreased | uterine VEGF protein levels, tamoxifen+rPEDF vs tamoxifen alone (VEGF [8]): significant decrease | ERα mRNA levels in uteri, rPEDF with tamoxifen (ERα [9]): able to attenuate the sub-acute tamoxifen-induced reduction in ERα mRNA levels
